Measurements: patent publication US6803203B1, “DNA-PK assay” (Brookhaven Science Associates, priority 1993, dated 2004)
“Also recorded” adds a separate entry of the source. Residues, ends and D or L forms follow the SMILES beside them. No end group written: not given here.

Assays:
Format in all cases: biochemical
[1] = biological target: T1, DNA-PK (Homo sapiens, UniProt P78527); experiment: Phosphorylation of synthetic peptides by purified DNA-PK (phosphocellulose paper binding method); details: for PO4 incorp.: each peptide at 200 μM, calf thymus DNA 10 μg/ml, 30° C.
T1 construct: DNA-PK was purified from HeLa cells; endogenous in cells; host or cells: HeLa S3 cells; the endogenous enzyme was purified in house by chromatography
Method: Phenylmethylsulfonyl fluoride was added to the S10 (10,000×g) supernatant as a powder to 0.5 mM. DNA-PK activity was found in the 100,000×g (ribosomal) pellet. DNA-PK preparations typically were made from 200 ml of S10 supernatant that had been derived from approximately 10^10 cells. All steps were performed at 4° C. unless indicated otherwise.
Phosphorylation reactions were performed in a 20- or 40-μl final volume as previously described by Chen, et al., J. Virol., 10:5131-5140 (1991) and Lees-Miller, et al., Mol. Cell. […] In particular, in addition to synthetic peptide substrates or protein substrates, the assays contained 50 mM HEPES (pH 7.5), 100 mM KCl, 10 mM MgCl2, 2 mM EGTA, 0.1 mM EDTA and 0.125 mM ATP containing [^32P]ATP at 0.2 mCi/ml. […] Assays were started by adding 1 μl of kinase sample. Incubations were at 30° C. for 7 min.
For determinations of kinetic constants, the ATP concentration was 0.5 mM. When present, hsp90 was included at 0.5 mg/ml. Assay mixtures were preincubated at 30° C. for 2 min before addition of 0.1 to 0.5 μg (protein) of the DNA-PK preparation.
In particular, kinase reactions were stopped by adding an equal volume of 30% acetic acid, and portions of the acidified reaction were spotted on 2- by 2-cm squares of P-81 paper (Whatman, Inc., Clifton, N.J.). […] The P-81 squares were then transferred to scintillation vials containing 3.5 ml of water, and bound radioactivity was determined from the Cerenkov radiation. Enzyme activity was calculated from triplicate determinations, using the specific activity of the ATP and the protein concentration, which was determined by the Bio-Rad dye-binding assay (Bio-Rad (Bradford) Protein Assay Kit 1, Cat. No. 500-001, Bio-Rad Laboratories, Hercules, Calif.), using bovine serum albumin as the standard. […] The kinetic constants, Km and Vmax for each peptide sequence were calculated from plots of 1/[S] versus 1/V, the values reported are averages of at least two independent determinations.

[2] = biological target: T1, DNA-PK; experiment: Conditions that result in 50% inhibition of DNA-PK activity; details: for 50% Inhibition / IC50: inhibition of DNA-PK activity in vitro
Method: Experiments were performed to determine optimal DNA-PK assay conditions. It was determined that DNA-PK is active over a broad pH range and the most common buffers with the exception of phosphate buffers. A summary of assay conditions that optimize DNA-PK activity in vitro is found in Table 4 along with a summary of conditions that result in 50% inhibition of DNA-PK activity.
The methods used to obtain results in the second section (Inhibitor section) of Table 4 are illustrative of methods that are applicable to identifying substances that alter the activity of DNA-PK.

[3] = biological target: T1, DNA-PK; experiment: Poorer substrate peptides added to (SEQ ID NO: 8) phosphorylation assays; details: peptide up to 250 μM; (SEQ ID NO: 8) at 100 μM
[4] = biological target: T1, DNA-PK; experiment: Identification of phosphorylated residues (sequence analysis, S-ethylcysteine conversion); details: p53 residue numbering
Method: To determine which of these were phosphorylated, after incubation with DNA-PK, radiochemical sequence analysis was performed by using a Beckman 890M spinning-cup sequencer (Beckman Instruments, Palo Alto, Calif.) as described by Lees-Miller, et al., J. Biol. Chem., 264:17275-17280 (1989). The peptide was isolated by reverse-phase HPLC, peptidylphosphoserine was converted to S-ethylcysteine, and the position of phenylthiohydantoin (PTH)-S-ethylcysteine was determined by chemical microsequence analysis using an Automated Protein/Peptide sequencer (Applied Biosystems, Foster City, Calif.) and a 120 PTH-Amino Acid Analyzer (Applied Biosystems, Foster City, Calif.) as described by Lees-Miller, et al., J. Biol. Chem., 264:17275-17280 (1989).
A peptide corresponding to mouse p53 residues Met^4-Pro^31, (SEQ ID NO: 2), was also examined (See Table 1). Serine 7 of mouse p53 is at the position equivalent to proline 4 of human p53, and the glutamine at position 8 of mouse p53 is conserved among mammals as reported by Soussi, et al., Oncogene, 5:945-952 (1990). After phosphorylation of (SEQ ID NO: 2) the peptide was digested with endoproteinase Glu-C, and the resulting fragments were separated by reverse-phase HPLC. […] Each peptide was treated to convert phosphoserine to S-ethylcysteine; then they were resequenced.

[5] = biological target: T1, DNA-PK; experiment: Phosphorylation of recombinant protein substrates by purified DNA-PK (SDS-PAGE, phosphorimage); details: 5 μg/ml calf thymus DNA compared to no addition of DNA; 30 minutes at 30° C.
Method: The recombinant protein substrates, a total of six, (at approximately 0.1 mg/ml final concentration) were separately mixed with hsp90 in a phosphorylation reaction with purified DNA-PK (0.6 pg, 0.02 units/assay) without (−) or with (+) 5 μg/ml calf thymus DNA, in the presence of ^32P-ATP for 30 minutes at 30° C. as described by Lees-Miller, et al., Mol. Cell. Biol., 12:5041-5049 (1992). The phosphorylation reactions were stopped with SDS sample buffer and analyzed with SDS-PAGE. The gel was fixed, stained with Coomassie brilliant blue, dried and developed by autoradiographic procedures. The results of which can be seen in FIG. 9.

PESEQAFADLWKK [SEQ ID NO: 23]
substrate activity for DNA-PK (in words) [1]: not phosphorylated by DNA-PK

CSCC[C@H](NC(=O)[C@H](C)NC(=O)[C@H](CCC(N)=O)NC(=O)[C@H](CO)NC(=O)[C@@H]1CCCN1C(=O)[C@H](CC(C)C)NC(=O)[C@@H]1CCCN1C(=O)[C@H](CO)NC(=O)[C@H](CC(C)C)NC(=O)[C@@H](NC(=O)[C@H](CC(N)=O)NC(=O)[C@@H](N)CC(N)=O)C(C)C)C(=O)N[C@@H](CC(=O)O)C(=O)N[C@@H](CC(=O)O)C(=O)N[C@@H](CC(C)C)C(=O)N[C@@H](CCSC)C(=O)N[C@@H](CCCCN)C(=O)N[C@@H](CCCCN)C(=O)O [SEQ ID NO: 6]
Km relative to (SEQ ID NO: 4) [1]: twice as high

Heparin [reference compound]
effect on DNA-PK activity (in words) [2]: inhibited | 50% Inhibition [2]: 1 µg/mL

Glu Pro Pro Leu Ser Gln Glu Thr Phe Ser Asp—Lys Lys (EPPLSQETFSDKK; Human p53 residues 11-21; listed as Homo sapiens) [SEQ ID NO: 10]
rate of phosphorylation relative to control (SEQ ID NO: 8) [1]: approximately 10% | PO4 incorp. [1]: 12 pmol/min/μg of DNA-PK | inhibition of phosphorylation of (SEQ ID NO: 8) [3]: None of these peptides significantly inhibited the phosphorylation

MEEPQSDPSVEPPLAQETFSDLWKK [SEQ ID NO: 5]
substrate activity for DNA-PK (in words) [1]: ineffective substrate for DNA-PK | rate of phosphorylation relative to (SEQ ID NO: 4) ([1]; at 200 μM): about 10% | PO4 incorp. [1]: 5.3 pmol/min/μg of DNA-PK | inhibition of phosphorylation of (SEQ ID NO: 8) [3]: None of these peptides significantly inhibited the phosphorylation

Phosphate
effect on DNA-PK activity (in words) [2]: inhibited | IC50 [2]: 10 mM

EPPLSQETFKK [SEQ ID NO: 9]
rate of phosphorylation relative to control (SEQ ID NO: 8) [1]: approximately 10% | PO4 incorp. [1]: 15 pmol/min/μg of DNA-PK | inhibition of phosphorylation of (SEQ ID NO: 8) [3]: None of these peptides significantly inhibited the phosphorylation

His Lys Lys Leu Met Phe Lys Thr Glu Gly Pro Asp Ser Asp (HKKLMFKTEGPDSD; Human p53 residues 380-393; listed as Homo sapiens) [SEQ ID NO: 31]
substrate activity for DNA-PK (in words) [1]: phosphorylated at a negligible rate; also recorded: not substrates for DNA-PK | PO4 incorp. [1]: 0 pmol/min/μg of DNA-PK | inhibition of phosphorylation of (SEQ ID NO: 8) [3]: None of these peptides significantly inhibited the phosphorylation

EPPLSEEAFADLWKK [SEQ ID NO: 32]
substrate activity for DNA-PK (in words) [1]: effectively eliminated the ability of the sequence to act as a DNA-PK substrate | PO4 incorp. [1]: 0.4 pmol/min/μg of DNA-PK | inhibition of phosphorylation of (SEQ ID NO: 8) [3]: None of these peptides significantly inhibited the phosphorylation

OCC(O)CO [Glycerol]
effect on DNA-PK activity (in words) [2]: inhibited | 50% Inhibition [2]: 25 % v/v

Ser Lys Lys Gly Gln Ser Thr Ser Arg His Lys Lys Leu Met Phe (SKKGQSTSRHKKLMF; Human p53 residues 371-385; listed as Homo sapiens) [SEQ ID NO: 30]
substrate activity for DNA-PK (in words) [1]: phosphorylated at a negligible rate | PO4 incorp. [1]: 0 pmol/min/μg of DNA-PK

O=P(O)(O)OP(=O)(O)O [Pyrophosphate]
effect on DNA-PK activity (in words) [2]: inhibited | IC50 [2]: 3 mM

EPPLSNEAFADLWKK [SEQ ID NO: 33]
substrate activity for DNA-PK (in words) [1]: eliminated the ability of the sequence to act as a DNA-PK substrate | PO4 incorp. [1]: 0.1 pmol/min/μg of DNA-PK | inhibition of phosphorylation of (SEQ ID NO: 8) [3]: None of these peptides significantly inhibited the phosphorylation

EPPLAQETFSDLWKK [SEQ ID NO: 22]
substrate activity for DNA-PK (in words) [1]: not phosphorylated efficiently by DNA-PK

MEESQSDISLELPLSQETFSGLWKLLPP [SEQ ID NO: 2]
site phosphorylated by DNA-PK [4]: Ser^7 and Ser^18

hsp90: human heat shock protein hsp90, a known DNA-PK substrate [reference compound]
increase in phosphate incorporation by addition of double stranded DNA [5]: 20 fold

EPPDSQEAFADLWKK [SEQ ID NO: 17]
substrate activity for DNA-PK (in words) [1]: less effective substrate for DNA-PK than peptides (SEQ ID NOS: 15 AND 16) | PO4 incorp. [1]: 48 pmol/min/μg of DNA-PK

CC(C)C[C@H](NC(=O)[C@H](CC(=O)O)NC(=O)[C@H](C)NC(=O)[C@H](Cc1ccccc1)NC(=O)[C@H](C)NC(=O)[C@H](CCC(=O)O)NC(=O)[C@H](CCC(N)=O)NC(=O)[C@H](CO)NC(=O)[C@H](CC(C)C)NC(=O)[C@@H]1CCCN1C(=O)[C@@H]1CCCN1C(=O)[C@@H](N)CCC(=O)O)C(=O)N[C@@H](Cc1c[nH]c2ccccc12)C(=O)N[C@@H](CCCCN)C(=O)N[C@@H](CCCCN)C(=O)O [SEQ ID NO: 11] (H-EPPLSQEAFADLWKK-OH)
Km relative to (SEQ ID NO: 8) [1]: twofold increase

EPPLSYEAFADLLKK [SEQ ID NO: 34]
PO4 incorp. [1]: 2.3 pmol/min/μg of DNA-PK
